Where a chain is given by its changes, count along the chain named. Numbers in names are those of the source.

T1: Peptide C (bovine)
T1 sequence (peptide): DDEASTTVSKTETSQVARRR

B1: bovine GRK1 C-terminally truncated at residue 535 and tagged with hexahistidine (GRK1_(535)H6), wild type (enzyme)
chain: MDFGSLETVVANSAFIAARGSFDASSGPASRDRKYLARLKLPPLSKCEALRESLDLGFEGMCLEQPIGKRLFQQFLRTHEQHGPALQLWKDIEDYDTADDALRPQKAQALRAAYLEPQAQLFCSFLDAETVARARAGAGDGLFQPLLRAVLAHLGQAPFQEFLDSLYFLRFLQWKWLEAQPMGEDWFLDFRVLGRGGFGEVFACQMKATGKLYACKKLNKKRLKKRKGYQGAMVEKKILAKVHSRFIVSLAYAFETKTDLCLVMTIMNGGDIRYHIYNVDEDNPGFQEPRAIFYTAQIVSGLEHLHQRNIIYRDLKPENVLLDDDGNVRISDLGLAVELKAGQTKTKGYAGTPGFMAPELLLGEEYDFSVDYFALGVTLYEMIAARGPFRARGEKVENKELKQRVLEQAVTYPDKFSPASKDFCEALLQKDPEKRLGFRDGSCDGLRTHPLFRDISWRQLEAGMLTPPFVPDSRTVYAKNIQDVGAFSTVKGVAFEKADTEFFQEFASGTCPIPWQEEMIETGVFGDLNVWRPDG
B2: GRK1_(535)H6 F15A (enzyme)
chain: B1 chain with F15A
B3: GRK1_(535)H6 V9A (enzyme)
chain: B1 chain with V9A
B4: GRK1_(535)H6 L6A (enzyme)
chain: B1 chain with L6A
B5: GRK1_(535)H6 A11E (enzyme)
chain: B1 chain with A11E
B6: GRK1_(535)H6 I16A (enzyme)
chain: B1 chain with I16A
B7: GRK1_(535)H6 A18E (enzyme)
chain: B1 chain with A18E
B8: GRK1_(535)H6 N12A (enzyme)
chain: B1 chain with N12A
B9: GRK1_(535)H6 E7A (enzyme)
chain: B1 chain with E7A
B10: GRK1_(535)H6 V10A (enzyme)
chain: B1 chain with V10A

For one assay, the target named is bovine rhodopsin, photoactivated (Rho*) (bovine) (UniProt P02699).
UniProt P02699, sequence (P02699 whole entry): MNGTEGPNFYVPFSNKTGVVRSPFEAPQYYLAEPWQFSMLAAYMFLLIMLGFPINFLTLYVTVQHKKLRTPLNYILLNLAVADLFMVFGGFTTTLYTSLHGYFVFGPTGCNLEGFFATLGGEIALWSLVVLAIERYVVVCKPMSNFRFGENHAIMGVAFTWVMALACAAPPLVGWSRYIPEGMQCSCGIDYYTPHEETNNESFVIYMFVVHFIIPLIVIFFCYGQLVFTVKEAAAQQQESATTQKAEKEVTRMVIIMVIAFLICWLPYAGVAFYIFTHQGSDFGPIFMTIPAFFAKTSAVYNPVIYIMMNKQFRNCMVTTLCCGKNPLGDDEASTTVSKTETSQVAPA
Molecule B1 had a decrease of the magnitude of the fluorescence change of Meta II decay of 35%.

For the next assay, the target named is T1, Peptide C (bovine).
On to B1, for which the KM of peptide C phosphorylation was 320 µM.
Consider B2, for which the KM of peptide C phosphorylation was found to be 350 µM.
For B3, the KM of peptide C phosphorylation stood at 350 µM.
Still for that read-out and setting: the same measure for B4: 280 µM.
The same measure, in the same setting: the same measure for B5: 310 µM; for B6: 220 µM; for B7: 410 µM.
The same measure, in the same setting: next, B8: 500 µM; B9: 410 µM.
For the molecule B10, the KM of peptide C phosphorylation is 390 µM.

A further assay deals with bovine rhodopsin, photoactivated (Rho*) (bovine) (UniProt P02699). The source holds these as a separate data set.
Regarding B1, the KM of ROS (Rho*) phosphorylation is 3.4 µM.
As to B2, the KM of ROS (Rho*) phosphorylation was 11 µM.
As to B3, the KM of ROS (Rho*) phosphorylation is 18 µM.
B4: the KM of ROS (Rho*) phosphorylation stood at 12 µM.
Still for that read-out and setting: next, B5: 8.8 µM; B6: 9.5 µM.
In the case of B7, the KM of ROS (Rho*) phosphorylation amounted to 6.1 µM.
For B8, the KM of ROS (Rho*) phosphorylation turned out to be 20 µM.
B9: the KM of ROS (Rho*) phosphorylation worked out at 13 µM.
On the same count and under the same terms, the same measure for B10: 21 µM.

Values taken from PMC3069497.
